We go through 83 variants from the RNAGym collection of RNA variant scans (doi:10.1093/molbev/msab373).

To fix the notation:
B1: Azoarcus group I ribozyme (parent)
chain: GUGCCUUGCGCCGGGAAACCACGCAAGGGAUGGUGUCAAAUUCGGCGAAACCUAAGCGCCCGCCCGGGCGUAUGGCAACGCCGAGCCAAGCUUCGGCGCCUGCGCCGAUGAAGGUGUAGAGACUAGACGGCACCCACCUAAGGCAAACGCUAUGGUGAAGGCAUAGUCCAGGGAGUGGCGAAAGUCACACAAACCGG

The data set covers variants of B1. Description: reverse-splicing fitness (ratio to wild type); higher = more active; in vitro selection; Mg2+ level not given. An outline of the steps:
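An in vitro group I ribozyme library with randomized positions was T7-transcribed and gel-purified. In triplicate, 10 pmol RNA in EPPS pH 7.5 was reacted with 50 pmoles of a 30-nt RNA substrate for 1 h at 37 °C across several added MgCl2 levels (1–48 mM), then stopped with EDTA. Products were reverse transcribed from a substrate-complementary primer, PCR-amplified and sequenced (HiSeq 4000). Fitness is a variant's read proportion after selection over that before, normalised to wild type.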
C82U A111G A120U A145G C150G: the reverse-splicing fitness was determined as 0.00906.

C82U A111G A120U A145U C169A: the reverse-splicing fitness came to 0.00249.

As to C82U A111G A120U A145U C169U, the reverse-splicing fitness was found to be 0.00467.

Take C82U A111G A120U A145U C169G: the reverse-splicing fitness stood at 0.00313.

Regarding C82U A111G A120U A145U C150U C169U U176G, the reverse-splicing fitness was 0.00192.

For the variant C82U A111G A120U A145U C150U C169U U176C, the reverse-splicing fitness was found to be 0.00261.

Consider C82U A111G A120U A145U C150U C169U U176A, for which the reverse-splicing fitness stood at 0.00262.

On to C82U A111G A120U C150A C169U U176C, for which the reverse-splicing fitness is 0.00372.

Turning to C82U A111G A120U C150A C169U U176G, the reverse-splicing fitness is 0.00202.

On to C82U A111G A120U C150A C169U U176A, for which the reverse-splicing fitness was found to be 0.00577.

In the case of C82U A111G A145C C150G U176C, the reverse-splicing fitness came out at 0.0249.

For the variant C82U A111G A145C C150G U176A, the reverse-splicing fitness stood at 0.0112.

C82U A111G A145C C150G U176G: the reverse-splicing fitness came to 0.00329.

As for C82U A111G A120U A145U, the reverse-splicing fitness worked out at 0.0429.

Turning to C82U A111G A120U A145G, the reverse-splicing fitness was determined as 0.0428.

For the variant C82U A111G A120U A145C, the reverse-splicing fitness was determined as 0.0379.

With C82U A111G A120U C150G C169G U176C, the reverse-splicing fitness was determined as 0.00318.

C82U A111G A120U C150G C169G U176G: the reverse-splicing fitness came to 0.0022.

For C82U A111G A120U C150G C169G U176A, the reverse-splicing fitness is 0.00513.

On to C82U A111G A120G C150U C169G U176C, for which the reverse-splicing fitness turned out to be 0.0174.

Regarding C82U A111G A120G C150U C169G U176A, the reverse-splicing fitness is 0.0144.

Consider C82U A111G A120G C150U C169G U176G, for which the reverse-splicing fitness stood at 0.00447.

In the case of C82U A111G A120U A145G C150U C169G, the reverse-splicing fitness was 0.00615.

For C82U A111G A120U A145G C150U C169U, the reverse-splicing fitness amounted to 0.00469.

C82U A111G A120U A145G C150U C169A: the reverse-splicing fitness worked out at 0.0056.

With C82U A111G A120U C150U C169U U176G, the reverse-splicing fitness worked out at 0.0019.

With C82U A111G A120U C150U C169U U176A, the reverse-splicing fitness was determined as 0.00404.

Consider C82U A111G A120U C150U C169U U176C, for which the reverse-splicing fitness is 0.00375.

Take C82U A111G A120U: the reverse-splicing fitness came to 0.0431.

For the variant C82U A111G A120U A145U C150G C169G U176A, the reverse-splicing fitness worked out at 0.00235.

Take C82U A111G A120U A145U C150G C169G U176C: the reverse-splicing fitness was 0.00239.

As to C82U A111G A120U A145U C150G C169G U176G, the reverse-splicing fitness is 0.00175.

As for C82U A111G A120U A145G C150G C169A U176G, the reverse-splicing fitness turned out to be 0.00326.

With C82U A111G A120U A145G C150G C169A U176A, the reverse-splicing fitness is 0.0084.

For the variant C82U A111G A120U A145G C150G C169A U176C, the reverse-splicing fitness is 0.00712.

As to C82U A111G A120U A145G C150A C169G U176C, the reverse-splicing fitness was determined as 0.00574.

Turning to C82U A111G A120U A145G C150A C169G U176G, the reverse-splicing fitness was 0.00221.

Consider C82U A111G A120U A145G C150A C169G U176A, for which the reverse-splicing fitness turned out to be 0.0124.

For the variant C82U A111G A120U A145U C150G C169U, the reverse-splicing fitness is 0.00235.

Take C82U A111G A120U A145U C150G C169A: the reverse-splicing fitness was found to be 0.00272.

As to C82U A111G A120U A145U C150G C169G, the reverse-splicing fitness was found to be 0.00266.

Turning to C82U A111G A120U A145U C150U U176G, the reverse-splicing fitness stood at 0.00372.

As to C82U A111G A120U A145U C150U U176C, the reverse-splicing fitness came out at 0.013.

Regarding C82U A111G A120U A145U C150U U176A, the reverse-splicing fitness stood at 0.00763.

As for C82U A111G A120U A145G C169G, the reverse-splicing fitness was found to be 0.00348.

For the variant C82U A111G A120U A145G C169A, the reverse-splicing fitness was 0.00248.

As to C82U A111G A120U A145G C169U, the reverse-splicing fitness turned out to be 0.00406.

C82U A111G A120G U176G: the reverse-splicing fitness is 0.00466.

With C82U A111G A120G U176A, the reverse-splicing fitness stood at 0.013.

Regarding C82U A111G A120G U176C, the reverse-splicing fitness was 0.0144.

As for C82U A111G A120U C169G U176A, the reverse-splicing fitness worked out at 0.0028.

Regarding C82U A111G A120U C169G U176G, the reverse-splicing fitness came out at 0.00183.

C82U A111G A120U C169G U176C: the reverse-splicing fitness turned out to be 0.00265.

On to C82U A111G A120U A145C C150U C169A U176A, for which the reverse-splicing fitness was found to be 0.00277.

For C82U A111G A120U A145C C150U C169A U176G, the reverse-splicing fitness came out at 0.00196.

Take C82U A111G A120U A145C C150U C169A U176C: the reverse-splicing fitness was found to be 0.0021.

For the variant C82U A111G A120U C150U U176C, the reverse-splicing fitness is 0.0105.

As for C82U A111G A120U C150U U176A, the reverse-splicing fitness was found to be 0.00678.

Turning to C82U A111G A120U C150U U176G, the reverse-splicing fitness came out at 0.00374.

C82U A111G A145C C150A C169G U176C: the reverse-splicing fitness was 0.0112.

As to C82U A111G A145C C150A C169G U176A, the reverse-splicing fitness was 0.0215.

Consider C82U A111G A145C C150A C169G U176G, for which the reverse-splicing fitness came to 0.0054.

Consider C82U A111G A120U A145U C150A C169A U176A, for which the reverse-splicing fitness came out at 0.00277.

For the variant C82U A111G A120U A145U C150A C169A U176C, the reverse-splicing fitness came out at 0.00251.

On to C82U A111G A120U A145U C150A C169A U176G, for which the reverse-splicing fitness amounted to 0.00195.

Consider C82U A111G A120G C150U C169G, for which the reverse-splicing fitness was determined as 0.0104.

On to C82U A111G A120G C150U C169A, for which the reverse-splicing fitness turned out to be 0.0105.

As to C82U A111G A120G C150U C169U, the reverse-splicing fitness turned out to be 0.00996.

On to C82U A111G A120U A145U C169A U176A, for which the reverse-splicing fitness amounted to 0.00208.

For C82U A111G A120U A145U C169A U176C, the reverse-splicing fitness was found to be 0.0022.

With C82U A111G A120U A145U C169A U176G, the reverse-splicing fitness worked out at 0.00175.

Take C82U A111G A120U A145C C150A C169U U176G: the reverse-splicing fitness stood at 0.00196.

Consider C82U A111G A120U A145C C150A C169U U176A, for which the reverse-splicing fitness was 0.00182.

C82U A111G A120U A145C C150A C169U U176C: the reverse-splicing fitness turned out to be 0.00235.

As for C82U A111G A120U C150G C169U U176C, the reverse-splicing fitness was found to be 0.00396.

Regarding C82U A111G A120U C150G C169U U176A, the reverse-splicing fitness worked out at 0.00387.

For the variant C82U A111G A120U C150G C169U U176G, the reverse-splicing fitness was 0.00234.

Consider C82U A111G A120U C150A U176C, for which the reverse-splicing fitness is 0.00592.

For C82U A111G A120U C150A U176A, the reverse-splicing fitness was determined as 0.00587.

Regarding C82U A111G A120U C150A U176G, the reverse-splicing fitness was found to be 0.00238.

On to C82U A111G A120G C150G U176C, for which the reverse-splicing fitness is 0.00816.

Turning to C82U A111G A120G C150G U176G, the reverse-splicing fitness was 0.0029.

In the case of C82U A111G A120G C150G U176A, the reverse-splicing fitness came to 0.00527.
